Article PMC2474558

Target: hDOP–C352I Gαi2
Test: radioligand binding

pKi: 9
Substance: DADLE (D-Ala^2, Leu^5-enkephalin) (peptide)
